Data on one molecule can be found in patent US20200234789A1, “DESIGNED PROTEINS FOR LIGAND BINDING” (THE REGENTS OF THE UNIVERSITY OF CALIFORNIA, priority 2017, published 2020).

Data set [1] is described as follows: Porphyrin binding titration to determine KD (apo-PS1 titrated into (CF3)4PZn, absorbance at 423 nm). The settings on record: water-insoluble porphyrin solubilized with 1% w/v octylglucopyranoside detergent; 100 mM NaCl, 50 mM NaPi, pH 7.5; read-out: dissociation constant of binding, KD. The method, then:
FIGS. 3A-3D. Biophysical characterization of apo- and holo-PS1. FIG. 3A: Electronic absorption and emission spectra of (CF3)4PZn/PS1 holo-protein and (CF3)4PZn in toluene solvent. […] FIG. 3B: Determination of KD by apo-PS1 titration into a buffer solution (100 mM NaCl, 50 mM NaPi, pH 7.5) of (CF3)4PZn with 1% w/v octyl-b-D-glucopyranoside. […] FIG. 3C: Circular dichroism (CD) spectra of apo- and holo-PS1 in 50 mM NaPi, 100 mM NaCl, pH 7.5 as a function of temperature. The transitions appear reversible based on the fact that the spectra are identical after cooling to room temperature. Units are in molar residue ellipticity. […] FIG. 3D: Pump-probe transient absorption spectra of (CF3)4PZn bound in the interior of holo-PS1 at 21° C. and 100° C. […] Inset exemplifies identical transient dynamics (primarily intersystem crossing from S1 to T1) at ΔAbs.=482 nm (scaled). […]
2 μM of (CF3)4PZn was solubilized in a 1 mL solution of 50 mM NaPi, 100 mM NaCl, pH 7.5 buffer by inclusion of 1% w/v octyl-b-D-glucopyranoside. 2 μL of a 102 uM stock of apo-PS1 (0.2 μM aliquots) was titrated into the 1 mL solution containing the porphyrin, and an electronic absorption spectrum was measured until >2.5 equivalents of protein were added. Absorbance changes at 423 nm, due to His-Zn coordination-induced spectral shifts of the porphyrin, were fit to a single-site, protein-ligand binding model.

Data set [2] in a line: Porphyrin binding to apo-protein, electronic absorption spectra ((CF3)4PZn loading). The procedure:
FIGS. 3A-3D. Biophysical characterization of apo- and holo-PS1. FIG. 3A: Electronic absorption and emission spectra of (CF3)4PZn/PS1 holo-protein and (CF3)4PZn in toluene solvent. […] FIG. 3B: Determination of KD by apo-PS1 titration into a buffer solution (100 mM NaCl, 50 mM NaPi, pH 7.5) of (CF3)4PZn with 1% w/v octyl-b-D-glucopyranoside. […] FIG. 3C: Circular dichroism (CD) spectra of apo- and holo-PS1 in 50 mM NaPi, 100 mM NaCl, pH 7.5 as a function of temperature. The transitions appear reversible based on the fact that the spectra are identical after cooling to room temperature. Units are in molar residue ellipticity. […] FIG. 3D: Pump-probe transient absorption spectra of (CF3)4PZn bound in the interior of holo-PS1 at 21° C. and 100° C. […] Inset exemplifies identical transient dynamics (primarily intersystem crossing from S1 to T1) at ΔAbs.=482 nm (scaled). Experimental conditions: solvent=50 mM NaPi, 100 mM NaCl, pH 7.5; excitation wavelength=600±5 nm; magic-angle polarization between pump and probe pulses; pump-probe cross-correlation of ˜250 fs.
FIG. 10. Absorption spectra of (CF3)4PZn/PS1 and (CF3)4PZn/PS2 complexes. […] Experimental conditions: buffer=100 mM NaCl, 50 mM NaPi, pH 7.5.
A 2-fold excess of the cofactor (CF3)4PZn was added from a 4 mM DMSO stock solution to a 50 mM NaPi, 100 mM NaCl, pH 7.5 buffer with apo-protein (Note that final DMSO concentrations were kept <1%.). Buffer solution of apo-PS1 protein was heated for 5 minutes at 50° C., (CF3)4PZn was then added from the DMSO stock solution, the resultant mixture was vortexed for 5 seconds, and placed back in the heat block at 50° C. for 15 minutes, with vortexing every 3 minutes. The protein/cofactor solution was then spun at 14000×g in a Amicon Ultra-0.5 mL centrifuge filter for 10 min, three times, replacing the buffer to 0.5 mL after each 10 min spin. Finally, the protein solution was spun for 4 min at 12000×g in an Amicon ultrafree-MC GV filter (UFC30GV0S). The holo-PS1 sample was then used for spectroscopic experiments immediately afterward, and diluted to an appropriate concentration if necessary. Binding of (CF3)4PFe was carried out in the same fashion, with the exception that the porphyrin was first dissolved in a stock of DMSO/CHCl3.
Electronic absorption spectra were collected using a Shimadzu UV-1700 UV-Vis spectrophotometer or Cary 5000 spectrophotometer. Steady-state emission spectra were obtained on FLS920P spectrophotometer (Edinburgh Instruments Ltd. Livingston, UK) in 1 cm quartz optical cells. The steady-state emission spectra were corrected using the correction factor generated by the manufacturer.

A short description of data set [3]: Hydrogen-deuterium exchange measurements by 2D 15N HSQC NMR. The format is physicochemical. The procedure: FIGS. 5A-5F. Apo- and holo-PS1 share similar folded cores and differ in the binding region. FIG. 5A: 2D ^1H-^15N HSQC spectra acquired for apo- and holo-PS1. Experimental conditions: 0.78 mM at 298K, 50 mM NaPi, 100 mM NaCl, pH 7.5, in 5% D2O. Resonance assignments are indicated using the one-letter amino acid code. Signals arising from side chains (Asn HD2/ND2, Gln HE2/NE2, Arg HE/NE and Trp HE1/NE1) are also labeled. The residues belonging to the binding region and folded core are color-coded as in (FIG. 5B). Non-helical residues are labeled in cyan font face. […] A dashed box surrounds 90% of the backbone resonances of apo-PS1 and is also placed at the same position in the holo-PS1 spectrum. Arrows point to resonances of residues within the binding region that change dramatically upon binding of the cofactor. FIG. 5B: Solution NMR structures of apo-PS1 and holo-PS1. […] FIG. 5C: Hydrogen-deuterium exchange protection factors (PF) measured for apo- and holo-PS1, mapped onto the centroid structure of holo-PS1. Backbone amide nitrogens of residues with determined PFs are shown as spheres. […]
For the measurements of H/D exchange rates, a series of 2D ^15N HSQC spectra were obtained on a 900 MHz Bruker Avance II spectrometer. The first spectra were recorded 9 minutes after the dilution of 100 μl of a high concentration sample in H2O (2 mM for apo and 1.2 mM for holo) into 200 μl D2O buffer. […]

B1: PS1: de novo designed porphyrin-binding four-helix bundle protein; designed sequence SEQ ID NO:1, expressed His-tag-cleaved sequence SEQ ID NO:2 (protein)
chain: SEFEKLRQTGDELVQAFQRLREIFDKGDDDSLEQVLEEIEELIQKHRQLFDNRQEAADTEAAKQGDQWVQLFQRFREAIDKGDKDSLEQLLEELEQALQKIRELAEKKN
For B1, the Kd in data set [1] was 45 nM. Moreover, in data set [2] ((CF3)4PZn, based on absorbance at 280 nm and 423 nm, 100 mM NaCl, 50 mM NaPi, pH 7.5), the porphyrin loading turned out to be 100%. Moreover, in data set [2] (adding (CF3)4PZn from organic solution to aqueous PS1), the “time of complex formation” value is given as “within seconds”. For the same molecule, the “stability of the (CF3)4PZn complex over time” value in data set [2] (complex with (CF3)4PZn) was “stable for over a year”. In addition, in data set [3], the “protection of the backbone surrounding the apolar core from solvent H/D exchange” value is “highly protected from exchange”.

In general, Kd refers to a measure of binding affinity in units of concentration.
